Experimental data: paper PMC4755828 (Nature chemical biology, 2016)
Values belong to the molecule of their own block, whether it stands above or below them. Square brackets hold non-standard residues; d marks the D form. Ends that are not written are not given here. Peptide text beside a SMILES is read from it. * marks the point of attachment. Benzoyl(4-tBu) = CC(C)(C)c1ccc(C(=O)*)cc1; Lys(Me3) = C[N+](C)(C)CCCC[C@H](N)C(=O)O; Lys(Et2) = CCN(CC)CCCC[C@H](N)C(=O)O

Legend:
[1] = Intracellular concentration by LC-MS/MS; assay type: in vitro ADME; conditions: human, PC3 cells
PC3 cells [2] = assay: Intracellular concentration by LC-MS/MS; assay type: in vitro ADME
Mouse pharmacokinetics = assay type: in vivo; conditions: male swiss albino mice
HEK293T cells = assay: CellTiter-Glo cell viability assay; assay type: cell-based; conditions: up to 100 μM, 48 hours
PC3 cells [3] = assay: CellTiter-Glo cell viability assay; assay type: cell-based; conditions: up to 100 μM, 48 hours
CBX7 = conditions: cited from earlier work
[4] = target: CBX7 chromodomain (residues 8-62), C-terminal His-tag (UniProt O95931); assay: ITC
[5] = target: CDYL1b chromodomain (residues 1-78) (UniProt Q9Y232); assay: ITC
[6] = target: CDY1 chromodomain (residues 1-101) (UniProt Q9Y6F8); assay: ITC
[7] = target: CBX8 chromodomain (residues 8-61), N-terminal His-tag (UniProt Q9HC52); assay: ITC
[8] = target: CBX2 chromodomain (residues 9-66) (UniProt Q14781); assay: ITC
[9] = target: CBX4 chromodomain (residues 8-65), N-terminal His-tag (UniProt O00257); assay: ITC
[10] = target: CBX6 chromodomain (residues 8-65) (UniProt O95503); assay: ITC
[11] = target: CDYL2 chromodomain (residues 1-75) (UniProt Q8N8U2); assay: ITC
[12] = target: CBX7 (AlphaScreen construct); assay: AlphaScreen or HTRF

Sequence of CBX7 chromodomain (residues 8-62), C-terminal His-tag (O95931 8-62): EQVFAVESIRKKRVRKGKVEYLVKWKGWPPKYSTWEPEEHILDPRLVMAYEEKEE
Sequence of CDY1 chromodomain (residues 1-101) (Q9Y6F8 1-101): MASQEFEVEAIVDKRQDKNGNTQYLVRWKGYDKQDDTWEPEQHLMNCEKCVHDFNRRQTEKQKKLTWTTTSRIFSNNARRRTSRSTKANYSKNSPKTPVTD
Sequence of CBX6 chromodomain (residues 8-65) (O95503 8-65): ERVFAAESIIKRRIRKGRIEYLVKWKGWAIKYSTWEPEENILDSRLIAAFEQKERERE
Sequence of CDYL2 chromodomain (residues 1-75) (Q8N8U2 1-75): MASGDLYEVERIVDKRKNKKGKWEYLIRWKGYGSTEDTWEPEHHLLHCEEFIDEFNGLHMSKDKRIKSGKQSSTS
Sequence of CBX2 chromodomain (residues 9-66) (Q14781 9-66): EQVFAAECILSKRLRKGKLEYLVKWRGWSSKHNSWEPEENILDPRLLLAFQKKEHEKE
Sequence of CBX8 chromodomain (residues 8-61), N-terminal His-tag (Q9HC52 8-61): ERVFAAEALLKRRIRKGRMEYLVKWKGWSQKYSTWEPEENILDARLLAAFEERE

Molecule: CCN(CC)CCCC[C@H](NC(=O)[C@H](CC(C)C)NC(=O)[C@H](C)NC(=O)[C@H](Cc1ccccc1)NC(=O)c1ccc(C(C)(C)C)cc1)C(=O)N[C@@H](CO)C(=O)OC [UNC3866] ({Benzoyl(4-tBu)}-FAL[Lys(Et2)]S-OMe)
EC50 [1]: 340 nM
intracellular concentration (PC3 cells [2]; PC3 cells treated with 30 μM UNC3866 for 24 hrs, LC-MS/MS): 1.4 ± 0.3 µM
intracellular concentration as % of the extracellular concentration (PC3 cells [2]; PC3 cells, 30 μM UNC3866, 24 hours): ~5%
clearance (in words) (Mouse pharmacokinetics): moderate
toxicity in HEK293T cells (HEK293T cells): no toxic effects
toxicity in PC3 cells (PC3 cells [3]): no toxic effects

Molecule: RGFAL[Lys(Me3)]STHG
affinity for CBX7 relative to the corresponding H3K27me3 peptide (CBX7): 22 fold
Kd (CBX7; read-out: CBX7 Kd): 5000 nM

Molecule: UNC3866 (peptide)
Kd [5]: 910 nM
Kd [6]: 6300 nM
Kd [7]: 1200 nM
Kd [8]: 1800 nM
Kd [9]: 94 nM
Kd [10]: 610 nM
Kd [4]: 97 nM
Kd [11]: 850 nM
IC50 [12]: 66 nM

Next, values leading:

Kd [4]: 6700 nM
Molecule: UNC3567 (peptide)

Kd [4]: 220 nM
Molecule: UNC4195 (peptide)
